These results are taken from paper PMC3990580.

A word on the Kd: it is the concentration at which binding is half-saturated. The term koff denotes the first-order rate constant of dissociation. Higher therefore signals fast dissociation. The kon is a measure of how fast the partners come together. Read a low kon as slower complex formation.

In test [1] the target is Q223R extracellular murine leptin receptor Fc (LepRec-Fc) chimera (murine) (UniProt P48356). The test can be described thus: SPR; BiaCore T200, CM5 chip; anti-mouse IgG1 amine-coupled (~2000 RU) captures LepRec-Fc from the concentrated supernatant (100-300 RU); leptin 1.25-60 nM as analyte; 25°C, HBS-EP buffer, 30 µl/min; 600 s association, 1000 s dissociation; global 1:1 Langmuir fit; mean of two experiments.

Test [2] has as its target WT extracellular murine leptin receptor Fc (LepRec-Fc) chimera (murine) (UniProt P48356). The test is described as above.

“Recombinant murine leptin (from UniProt P41160 22-167) (ligand)”: in test [1], the Kd turned out to be 0.0843 nM, the off-rate (koff) was found to be 0.000147 s⁻¹ and the association rate constant (kon) turned out to be 1.75e+06 M⁻¹ s⁻¹. Moreover, in test [2], the equilibrium dissociation constant (Kd) was 0.0647 nM, the koff was 0.000121 s⁻¹ and the kon stood at 1.76e+06 M⁻¹ s⁻¹.
